The labels stand for the following.
B1: FICD^H363A (residues 104–445), dimeric, catalytically inactive [human] / AMPylated biotinylated-AviTag-haBiP^T229A-V461F (residues 27–635) [modified: AMP covalently attached to Thr518 (Thr518-AMP); biotin on the N-terminal Avi-tag; AMP … (parent complex)
chain 1: LEARAALNQALEMKRQGKREKAQKLFMHALKMDPDFVDALTEFGIFSEEDKDIIQADYLYTRALTISPYHEKALVNRDRTLPLVEEIDQRYFSIIDSKVKKVMSIPKGNSALRRVMEETYYHHIYHTVAIEGNTLTLSEIRHILETRYAVPGKSLEEQNEVIGMHAAMKYINTTLVSRIGSVTISDVLEIHRRVLGYVDPVEAGRFRTTQVLVGHHIPPHPQDVEKQMQEFVQWLNSEEAMNLHPVEFAALAHYKLVYIAPFIDGNGRTSRLLMNLILMQAGYPPITIRKEQRSDYYHVLEAANEGDVRPFIRFIAKCTETTLDTLLFATTEYSVALPEAQP
chain 2: not shown
B2: FICD^L258D-H363A (residues 104–445), monomeric, catalytically inactive [human] / AMPylated biotinylated-AviTag-haBiP^T229A-V461F (residues 27–635) [modified: AMP covalently attached to Thr518 (Thr518-AMP); biotin on the N-terminal Avi-tag; … (parent complex)
chain 1: B1 chain 1 with L155D
chain 2: not shown

The text below walks through data of paper PMC8373988 (2021).

Residue numbers refer to the chain shown, from its start. Names may count otherwise.

The first assay covers variants of B1. Description: BLI; 50 nM FICD analyte; immobilised BiP-AMP activated in 2 mM ATP; read at end of apo association (600 s); parent: 0.74; read off a plot.
For the variant chain 1 K21E, chain 1 H28A, the response is approximately 0.03 nm.

As to chain 1 E2R, the response is approximately 0.73 nm. The same measure, in the same setting: to chain 1 H28A belongs approximately 0.66 nm; to chain 1 K21E, approximately 0.43 nm.

The variants in a further assay derive from B1. The assay is described as follows: BLI; 50 nM FICD analyte; immobilised BiP activated in 2 mM ATP; read at end of apo association (600 s); parent: 0.24; read off a plot.
Take chain 1 E2R: the response was approximately 0.04 nm. With chain 1 K21E, the response is approximately 0.01 nm.

A further assay covers variants of B1. The assay is described as follows: BLI; 50 nM FICD analyte; immobilised BiP activated in 2 mM ATP; read at end of apo association (600 s); parent: 0.2; read off a plot. (In general: Biolayer interferometry detects binding as a change in optical thickness at a sensor tip.)
In the case of chain 1 L155D, the response is approximately 0.75 nm.

In the next assay the parent is B1. The assay is described as follows: BLI; 50 nM FICD analyte; immobilised BiP-AMP activated in 2 mM ATP; read at end of apo association (600 s); parent: 0.92; read off a plot.
Take chain 1 L155D: the response was approximately 0.75 nm.

Variants of B1 are the subject of a further assay. The assay is described as follows: BLI; 50 nM FICD analyte, oxidised (TPRox); immobilised BiP activated in 2 mM ATP; read at end of apo association (600 s); parent: 0.24; read off a plot.
Turning to chain 1 D57C, chain 1 T80C, chain 1 C318S, the response was approximately 0.31 nm.

A further assay covers variants of B1. Description: BLI; 50 nM FICD analyte, oxidised (TPRox); immobilised BiP-AMP activated in 2 mM ATP; read at end of apo association (600 s); parent: 0.74; read off a plot.
Consider chain 1 D57C, chain 1 T80C, chain 1 C318S, for which the response is approximately 0.79 nm.

The variants in the next assay derive from B2. Description: BLI; 50 nM FICD analyte; immobilised BiP-AMP activated in 2 mM ATP; read at end of apo association (600 s); parent: 0.7; read off a plot.
For the variant chain 1 E2R, the response was approximately 0.12 nm. On the same count and under the same terms, to chain 1 H28A belongs approximately 0.2 nm.

The next assay covers variants of B2. The assay is described as follows: BLI; 50 nM FICD analyte, oxidised (TPRox); immobilised BiP activated in 2 mM ATP; read at end of apo association (600 s); parent: 0.68; read off a plot.
For the variant chain 1 D57C, chain 1 T80C, chain 1 C318S, the response was approximately 0.92 nm.

Variants of B2 are the subject of another assay. Description: BLI; 50 nM FICD analyte, oxidised (TPRox); immobilised BiP-AMP activated in 2 mM ATP; read at end of apo association (600 s); parent: 0.7; read off a plot.
In the case of chain 1 D57C, chain 1 T80C, chain 1 C318S, the response is approximately 0.91 nm.
